Data as given in article PMC10154249, “Unique progerin C-terminal peptide ameliorates Hutchinson–Gilford progeria syndrome phenotype by rescuing BUBR1” (Nature Aging, 2023).

Biological target: T1, Flag-BUBR1 (human, UniProt O60566 1-1050)
T1 construct: also called Flag beads-BUBR1; source: eluted with 3×Flag peptide for MST, left on Flag beads for the pull-down
Assay: pull-down; 10 μg purified His-UPCP incubated with Flag beads, Flag beads-BUBR1 or Flag beads-PTBP1 for 16 h at 4 °C; beads washed three times with PBS
Settings: both partners purified

T1 sequence (O60566 whole entry): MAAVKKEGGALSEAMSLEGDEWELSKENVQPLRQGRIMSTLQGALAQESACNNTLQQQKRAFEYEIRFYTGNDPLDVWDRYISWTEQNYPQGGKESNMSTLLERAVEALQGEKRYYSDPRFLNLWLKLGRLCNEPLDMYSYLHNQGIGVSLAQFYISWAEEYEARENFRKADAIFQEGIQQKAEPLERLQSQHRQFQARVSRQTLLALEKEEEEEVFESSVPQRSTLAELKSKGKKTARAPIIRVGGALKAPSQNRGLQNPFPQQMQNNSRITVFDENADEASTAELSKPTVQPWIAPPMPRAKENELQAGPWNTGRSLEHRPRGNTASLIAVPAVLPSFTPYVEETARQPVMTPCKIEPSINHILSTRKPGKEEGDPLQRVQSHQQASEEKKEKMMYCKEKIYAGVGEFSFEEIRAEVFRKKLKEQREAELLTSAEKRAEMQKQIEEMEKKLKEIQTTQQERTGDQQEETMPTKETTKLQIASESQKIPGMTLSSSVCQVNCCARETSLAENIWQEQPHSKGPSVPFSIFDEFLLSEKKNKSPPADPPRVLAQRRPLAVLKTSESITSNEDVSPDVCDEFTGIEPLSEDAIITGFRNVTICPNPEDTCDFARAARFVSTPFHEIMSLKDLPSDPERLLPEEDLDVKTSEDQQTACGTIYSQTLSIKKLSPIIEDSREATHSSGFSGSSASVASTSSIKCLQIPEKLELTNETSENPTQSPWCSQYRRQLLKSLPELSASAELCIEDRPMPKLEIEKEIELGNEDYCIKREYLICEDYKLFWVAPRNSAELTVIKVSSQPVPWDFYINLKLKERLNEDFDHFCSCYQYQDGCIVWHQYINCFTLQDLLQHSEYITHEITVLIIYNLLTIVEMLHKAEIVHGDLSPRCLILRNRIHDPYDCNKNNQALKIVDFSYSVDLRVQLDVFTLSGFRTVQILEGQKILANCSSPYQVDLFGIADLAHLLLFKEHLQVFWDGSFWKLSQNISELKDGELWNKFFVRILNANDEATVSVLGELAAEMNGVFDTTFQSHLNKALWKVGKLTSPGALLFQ

## YGRKKRRQRRRYNLRSRTVLCGTCGQPADKASASGSGAQSPQNCSIM (also called His-tagged UPCP) [His-UPCP]
  binding result: binds
